We go through seven molecules from US20250325702A1, “COMPOSITIONS AND METHODS FOR EDITING A TRANSTHYRETIN GENE” (Beam Therapeutics Inc., priority 2022, published 2025).

In the oligonucleotide strings, read from the 5' end, every base follows the letter of its sugar. An asterisk marks phosphorothioate; unmarked linkages are phosphodiester. Other units and linkages are bracketed, terminal groups are in braces. A string of capitals states the bases alone. m = 2'-O-methyl; r = 2'-OH (RNA)

The subject of series [1] is on-target site and candidate off-target sites. Description: Validation of candidate off-target sites in primary human hepatocytes. It is filed as cell-based. Particulars: for editing efficiency at the on-target site: gRNA + ABE8.8 mRNA. As to the method: Several candidate off-target sites were analyzed for off-target editing in human primary hepatocytes.
Another series has as its system human TTR gene. Nature of the series: Base editing in primary human hepatocytes (gRNA + ABE8.8 mRNA transfection, NGS of amplicons). Particulars: for Human hepatocytes- Editing % 625, rep 1 / Human hepatocytes- Editing % 625, rep 2: 625 ng/RNA/mL; for Human hepatocytes- Editing % 625, rep 1 / Human hepatocytes- Editing % 625, rep 2 / Human hepatocytes- Editing % 1250, rep 1 / Human hepatocytes- Editing % 1250, rep 2 / Human hepatocytes- Editing % 2500, rep 1 / Human hepatocytes- Editing % 2500, rep 2: gRNA + ABE8.8 mRNA 1:1; for Human hepatocytes- Editing % 1250, rep 1 / Human hepatocytes- Editing % 1250, rep 2: 1250 ng/RNA/mL; for Human hepatocytes- Editing % 2500, rep 1 / Human hepatocytes- Editing % 2500, rep 2: 2500 ng/RNA/mL; for editing activity (percent splice editing) in human hepatocytes: primary human hepatocytes, ABE8.8 mRNA 1:1, three days after transfection. Format: cell-based. An excerpt:
In this example, gRNA sequences were identified that permit ABE8.8 (and other ABE variants containing Streptococcus pyogenes Cas9, such as ABE7.10, or another Cas protein that can use the NGG PAM) to either: 1) disrupt the start codon, and/or 2) disrupt splice sites, whether donors or acceptors, via A→G editing within its editing window (roughly positions 4 to 7 in the 20-nt protospacer region of DNA). Five sequences were identified throughout the human TTR gene that disrupt TTR expression (Table 8). gRNAs were synthesized matching each of the protospacer sequences and otherwise conforming to the standard 100-nt Streptococcus pyogenes CRISPR gRNA sequence, with each gRNA molecule having a minimal degree of chemical modifications (specified in Table 8). Each of the gRNAs was co-transfected with an equivalent amount of in vitro transcribed ABE8.8 mRNA (1:1 ratio by molecular weight) into primary human hepatocytes via MessengerMax reagent (Lipofectamine), using various dilutions (2500,1250, 625 ng/RNA/mL) to assess for editing activity at different concentrations of test article.
(§1) For orthogonal protospacer sequences of the corresponding cynomolgus monkey TTR gene sequence, each gRNA was also transfected with an equivalent amount of ABE8.8 mRNA (1:1 ratio by molecular weight) into primary cynomolgus hepatocytes at 5000, 2500, 1250, 625, 312.5, and 156.25 ng/RNA/mL. The mRNA, and corresponding amino acid, sequence of the ABE8.8 (MA004) used in shown below in Table 18. Three days after transfection, genomic DNA was harvested from the hepatocytes, and assessed for base editing with next-generation sequencing of PCR amplicons generated around the target splice site. […] See FIGS. 5A-5C, FIG. 6, and Tables 9-10.

For series [2], the target named is purified cyno TTR protein (Abcam, ab239566) (cyno (Macaca fascicularis)) (UniProt Q8HXW1). Nature of the series: sandwich ELISA; known concentrations of purified cyno TTR run on the human TTR kit, read against the human TTR standards.
For series [3], the system named is cynomolgus monkey TTR gene. Nature of the series: Base editing in primary cynomolgus hepatocytes (gRNA + ABE8.8 mRNA transfection, NGS). It is filed as cell-based. Particulars: for Cyno hepatocytes- Editing % 156.25: 156.25 ng/RNA/mL; for Cyno hepatocytes- Editing % 156.25 / Cyno hepatocytes- Editing % 312.5 / Cyno hepatocytes- Editing % 625 / Cyno hepatocytes- Editing % 1250 / Cyno hepatocytes- Editing % 2500 / Cyno hepatocytes- Editing % 5000: gRNA + ABE8.8 mRNA 1:1; for Cyno hepatocytes- Editing % 312.5: 312.5 ng/RNA/mL; for Cyno hepatocytes- Editing % 625: 625 ng/RNA/mL; for Cyno hepatocytes- Editing % 1250: 1250 ng/RNA/mL; for Cyno hepatocytes- Editing % 2500: 2500 ng/RNA/mL; for Cyno hepatocytes- Editing % 5000: 5000 ng/RNA/mL; for editing activity in cynomolgus primary hepatocytes: ABE8.8 mRNA 1:1, three days after transfection. As to the method:
as §1

A further series deals with transthyretin (TTR) gene. Description: Guide RNA screen in HEK293T cells: splice site disruption by base editors and bhCas12b nuclease (Example 5). Format: cell-based, human. Particulars: editor mRNA + sgRNA. As to the method: The guide RNAs listed in Table 1 were screened for use in editing the transthyretin (TTR) gene by disrupting splice sites (FIG. 29A-29C) or using a bhCas12b nuclease strategy (FIG. 30). 15 total guide RNAs were screened. The screen was performed in HEK293T cells using based editors and bhCas12b delivered as mRNA and the sgRNAs. The guide RNAs sgRNA_361 and sgRNA_362 worked well in splice site disruption (FIGS. 29A-29C) using ABE and/or BE4. Several of the gRNAs functioned well as bhCas 12b nuclease gRNAs.
Cells were cultured at 37° C. with 5% CO2. HEK293T cells [CLBTx013, American Type Cell Culture Collection (ATCC)] were cultured in Dulbecco's modified Eagles medium plus Glutamax (10566-016, Thermo Fisher Scientific) with 10% (v/v) fetal bovine serum (A31606-02, Thermo Fisher Scientific). Cells were tested negative for mycoplasma after receipt from supplier.
HEK293T cells were seeded onto 48-well well Poly-D-Lysine treated BioCoat plates (Corning) at a density of 35,000 cells/well and transfected 18-24 hours after plating. Cells were counted using a NucleoCounter NC-200 (Chemometec). A solution was prepared containing Opti-MEM reduced serum media (ThermoFisher Scientific), the base editor, nuclease, or control mRNA, and sgRNA. The solution was combined with Lipofectamine MessengerMAX (ThermoFisher) in Opti-MEM reduced serum media and left to rest at room temperature for 15 min. […]

Where [4] appears, read: GA459 On-target site (SEQ ID NO: 468).
The mark [5] stands for this setting: GA459 off-target site OT1 (SEQ ID NO: 1095).
The mark [6] stands for this setting: GA459 off-target site OT3 (SEQ ID NO: 1096).

Take “GA457: guide RNA, spacer 5′-GCCAUCCUGCCAAGAAUGAG-3′ (SEQ ID NO: 472), human TTR”: in series [1] (47 candidate off-target sites, primary human hepatocytes), the “net editing at off-target sites” value was “less than 0.4%”. The “editing efficiency at the on-target site” value in series [1] (primary human hepatocytes) is recorded as “high editing efficiency”. In addition, in the series with human TTR gene, the “Human hepatocytes- Editing % 625, rep 1” value is on record as 17.24%; the “Human hepatocytes- Editing % 625, rep 2” value is reported as 15.39%; the “Human hepatocytes- Editing % 1250, rep 1” value is given as 26.49%; the “Human hepatocytes- Editing % 1250, rep 2” value stood at 24.86%. Besides, in the series with human TTR gene, the “Human hepatocytes- Editing % 2500, rep 1” value came out at 33.96%; the “Human hepatocytes- Editing % 2500, rep 2” value came out at 31.31%; the “editing activity (percent splice editing) in human hepatocytes” value was “high editing activity”.
“antibodies of the human prealbumin (TTR) ELISA kit (Abcam, ab231920) (antibody)” returned a cross-reactivity in series [2] of 4%.

B1: GA461: guide RNA, spacer 5′-UACUCACCUCUGCAUGCUCA-3′ (SEQ ID NO: 476) (nucleic acid)
guide: TACTCACCTCTGCATGCTCAGTTTTAGAGCTAGAAATAGCAAGTTAAAATAAGGCTAGTCCGTTATCAACTTGAAAAAGTGGCACCGAGTCGGTGCTTTT
modifications: chemistry not given here
Turning to B1, the “off-target editing observed at candidate off-target sites” value (shortened to “off-target editing observed”) in series [1] was “little to no off-target editing”. Further, the “editing efficiency at the on-target site” value in series [1] (primary human hepatocytes) is given as “high editing efficiency”. In addition, in series [3], the “Cyno hepatocytes- Editing % 156.25” value was 0.07%, the “Cyno hepatocytes- Editing % 312.5” value is 7.45%, the “Cyno hepatocytes- Editing % 625” value is reported as 13.16% and the “Cyno hepatocytes- Editing % 1250” value was found to be 19.46%. Moreover, in series [3], the “Cyno hepatocytes- Editing % 2500” value was 29.8%, the “Cyno hepatocytes- Editing % 5000” value is listed as 37.53% and the “editing activity in cynomolgus primary hepatocytes” value was “high editing activity”. In the series on human TTR gene, the “Human hepatocytes- Editing % 625, rep 1” value was determined as 21.81%; the “Human hepatocytes- Editing % 625, rep 2” value turned out to be 22.31%; the “Human hepatocytes- Editing % 1250, rep 1” value was 32.82%; the “Human hepatocytes- Editing % 1250, rep 2” value worked out at 32.38%. Moreover, in the series on human TTR gene, the “Human hepatocytes- Editing % 2500, rep 1” value is reported as 40.42%; the “Human hepatocytes- Editing % 2500, rep 2” value is 39.43%; the “editing activity (percent splice editing) in human hepatocytes” value is on record as “high editing activity”.

B2: sgRNA_362: guide RNA, SEQ ID NO: 480 (nucleic acid)
guide: mU*mA*mC*rUrCrArCrCrUrCrUrGrCrArUrGrCrUrCrArGrUrUrUrUrArGrArGrCrUrArGrArArArUrArGrCrArArGrUrUrArArArArUrArArGrGrCrUrArGrUrCrCrGrUrUrArUrCrArArCrUrUrGrArArArArArGrUrGrGrCrArCrCrGrArGrUrCrGrGrUrGrCmU*mU*mU*rU
As for B2, the “splice site disruption using ABE and/or BE4” value with transthyretin (TTR) gene is on record as “worked well”.

B3: sgRNA_361: guide RNA, SEQ ID NO: 479 (nucleic acid)
guide: mU*mA*mU*rArGrGrArArArArCrCrArGrUrGrArGrUrCrGrUrUrUrUrArGrArGrCrUrArGrArArArUrArGrCrArArGrUrUrArArArArUrArArGrGrCrUrArGrUrCrCrGrUrUrArUrCrArArCrUrUrGrArArArArArGrUrGrGrCrArCrCrGrArGrUrCrGrGrUrGrCmU*mU*mU*rU
With B3, the “splice site disruption using ABE and/or BE4” value in the series with transthyretin (TTR) gene is reported as “worked well”.

B4: GA459: guide RNA, spacer 5′-GCAACUUACCCAGAGGCAAA-3′ (SEQ ID NO: 474) (nucleic acid)
guide: GCAACTTACCCAGAGGCAAAGTTTTAGAGCTAGAAATAGCAAGTTAAAATAAGGCTAGTCCGTTATCAACTTGAAAAAGTGGCACCGAGTCGGTGCTTTT
modifications: chemistry not given here
For the molecule B4, in series [1], the “off-target editing observed” value is reported as “little to no off-target editing”. Besides, in series [1] (setting [4]), the “SUM Editing %- Human Primary Hepatocytes Treat rep 1” value turned out to be 14.17% and the “SUM Editing %- Human Primary Hepatocytes Treat rep 2” value worked out at 14.29%. Also, in series [1] (setting [5]), the “SUM Editing %- Human Primary Hepatocytes Treat rep 1” value came to 1.19% and the “SUM Editing %- Human Primary Hepatocytes Treat rep 2” value is 1.25%. Further, in series [1] (setting [6]), the “SUM Editing %- Human Primary Hepatocytes Treat rep 1” value is 0.98% and the “SUM Editing %- Human Primary Hepatocytes Treat rep 2” value is reported as 0.82%. For the same molecule, the “editing efficiency at the on-target site” value in series [1] (primary human hepatocytes) is reported as “high editing efficiency”. In the series with human TTR gene, the “Human hepatocytes- Editing % 625, rep 1” value is reported as 3.79%; the “Human hepatocytes- Editing % 625, rep 2” value was 3.89%; the “Human hepatocytes- Editing % 1250, rep 1” value was found to be 5.46%; the “Human hepatocytes- Editing % 1250, rep 2” value was determined as 6.15%. For the same molecule, in the series with human TTR gene, the “Human hepatocytes- Editing % 2500, rep 1” value is on record as 8.5% and the “Human hepatocytes- Editing % 2500, rep 2” value turned out to be 8.69%.

B5: GA460: guide RNA, spacer 5′-UAUAGGAAAACCAGUGAGUC-3′ (SEQ ID NO: 475) (nucleic acid)
guide: TATAGGAAAACCAGTGAGTCGTTTTAGAGCTAGAAATAGCAAGTTAAAATAAGGCTAGTCCGTTATCAACTTGAAAAAGTGGCACCGAGTCGGTGCTTTT
modifications: chemistry not given here
As for B5, the “off-target editing observed” value in series [1] is “little to no off-target editing”. Also, the “editing efficiency at the on-target site” value in series [1] (primary human hepatocytes) is recorded as “high editing efficiency”. Besides, in series [3], the “Cyno hepatocytes- Editing % 156.25” value is on record as 1.62%, the “Cyno hepatocytes- Editing % 312.5” value is recorded as 11.22%, the “Cyno hepatocytes- Editing % 625” value was determined as 18.44% and the “Cyno hepatocytes- Editing % 1250” value is listed as 31.71%. In series [3], the “Cyno hepatocytes- Editing % 2500” value is 38.25%, the “Cyno hepatocytes- Editing % 5000” value is recorded as 40.16% and the “editing activity in cynomolgus primary hepatocytes” value was “high editing activity”. For the same molecule, in the series with human TTR gene, the “Human hepatocytes- Editing % 625, rep 1” value stood at 23.77%; the “Human hepatocytes- Editing % 625, rep 2” value amounted to 22.27%; the “Human hepatocytes- Editing % 1250, rep 1” value was 38.33%; the “Human hepatocytes- Editing % 1250, rep 2” value was determined as 35.8%. Besides, in the series with human TTR gene, the “Human hepatocytes- Editing % 2500, rep 1” value is on record as 47.61%; the “Human hepatocytes- Editing % 2500, rep 2” value is recorded as 47.79%; the “editing activity (percent splice editing) in human hepatocytes” value is “high editing activity”.
